{"source": "paper PMC7417364", "target": "Paracoccidioides brasiliensis 1-Cys peroxiredoxin (PbPrx1), recombinant (Paracoccidioides brasiliensis (isolate Pb18))", "assay": "SEC; analytical HPLC, Phenomenex BioSep-SEC-S3000 column, 50 uM protein in 100 mM Tris-HCl pH 7.4, run in 100 mM Tris-HCl pH 7.4 with 50 mM NaCl, 1.0 mL/min; samples treated beforehand with 5 mM TCEP (reduced) or 1.2 molar equivalents of H2O2 (oxidised) for 30 min at 25 C; dimeric in both redox states", "data": [{"substance": "Paracoccidioides brasiliensis 1-Cys peroxiredoxin (PbPrx1), recombinant (enzyme)", "values": [{"measurement": "stoichiometry N", "value": 2}]}]}
